Assay results from US20250000944A1, “USE OF RECOMBINANT CALRETICULIN IN HAIR GROWTH, HAIR BREEDING, HAIR PROTECTION OR ANTI-HAIR LOSS AND RELATED PRODUCT” (BEIJING YITUBAIHUI BIOTECH CO., LTD, priority 2021, published 2025).
Entries after “also recorded” stand apart in the source; their conditions may differ.

Key:
[1] = tested on: mice with androgenic alopecia; test: Second experiment: testosterone hair loss model, hair growth, skin blackness, scanning electron microscopy and hair follicle count; format: in vivo, C57BL/6 male mice; conditions: for hair growth on the back skin: 17th day, 0.15 mL/mouse once a day; for growth stage and quantity of back hair under dermoscope: end of experiment
Experimental: (§1) Experimental animals: C57BL/6 male mice, 6-7 weeks old, weighing (20±2) g, were provided by Beijing Vital River Laboratory Animal Technology Co. Ltd., with the animal license number of SCXK (Beijing) 2021-0006. They were kept in a 12 h light/12 h dark environment, with free access to food and water. The mice were divided into normal control group (normal group, NC), model group (Model), experimental group C (rh-CRT-2, with a concentration of 0.35 mg/ml) including an injection group and an external application group, experimental group D (rh-CRT-3, with a concentration of 0.21 mg/ml) including an injection group and external application group, and positive control-minoxidil group (Minoxidil). The proteins were stored in a −70° C. refrigerator and diluted with physiological saline when used. There were 6 mice in each group.
(§2) Modeling and drug administration: First, the hair loss model was established. One day before the modeling, the hair in the center of the back of the experimental animal was removed with a skin preparation knife, and the prepared skin area was depilated with a depilatory cream. After 24 hours of depilation, the normal control group was given 75% ethanol, and other groups were injected with testosterone solution (5 mg/mL) prepared with 75% ethanol, 0.01 mL/mouse. Two hours later, the injection groups of experimental group C and experimental group D were injected on the back, 0.15 mL/mouse, once a day, for 17 consecutive days; the external application groups of experimental group C and experimental group D were applied on the back, 0.15 mL/mouse, once a day, for 17 consecutive days. The normal control group and the model group were externally applied with physiological saline, once a day, 0.15 mL/mouse, for 17 consecutive days. During the drug administration process, except for the normal control group, all other groups were injected with the modeling agent (testosterone), and administrated with drugs after 2 hours. […] After the experiment, the mouse skin was pathologically sectioned as follows: The skin pathological tissue was fixed in 4% paraformaldehyde, trimmed, dehydrated and transparent, and then embedded. The slices were cut with a thickness of 6 μm using a paraffin slicer, and further dewaxed, stained, dehydrated, transparent and sealed. The hair follicles in different areas were observed under an optical microscope, and the number of hair follicles was statistically analyzed.
Scanning electron microscopy observation: At the end of the experiment, hair shafts were randomly plucked from the newly formed hair area on the back of each group of mice. Three mice were selected from each group. The plucked hair shafts were fixed and the changes of hair shafts and hair cuticles were observed by scanning electron microscopy.
(§3) Statistical analysis: All data were processed using SPSS 17.0 software. One-way ANOVA was used for comparisons among multiple groups. Data were expressed as mean±standard deviation (x±s). P<0.05 was considered statistically significant, and P>0.05 was not considered statistically significant.

[2] = tested on: testosterone, dihydrotestosterone, and estradiol; test: Second experiment: hormone content in serum and skin tissue by ELISA; format: in vivo, C57BL/6 male mice; conditions: compared with the model group
Experimental: as §1, §2
Hormone content in serum and skin tissue: At the end of the experiment, blood was collected from the mice's orbits, kept at room temperature for 30 min, centrifuged at 5,000 r/min for 10 min, and the serum was removed. At the end of the experiment, skin tissue was collected and stored in a −80° C. refrigerator. During the experiment, the skin tissue was homogenized, and the changes in testosterone, dihydrotestosterone, and estradiol of the serum and skin tissue in each group were detected by enzyme-linked immunosorbent assay (ELISA).
as §3

[3] = tested on: AGA (androgenic alopecia) model mice; test: Third experiment: hair growth score in DHT-induced AGA model mice; format: in vivo, C57BL/6N male mice; conditions: Day 17, P<0.05
Experimental: C57BL/6N male mice, 6-7 weeks old, weighing (18-20) g, 50 mice, with the animal license number of SCXK (Beijing) 2021-0006, were kept in a 12 h light/12 h dark environment, with free access to food and water. Adaptive feeding was performed for about 1 week.
The hair in an area of about 2 cm×3 cm at the border of the spine was shaved using an electric shaver. The depilatory area was applied with 8% sodium sulfide solution. After 90±10 s, the depilatory area on the back was cleaned with cotton balls dipped in water, the residual sodium sulfide was washed away with a washing bottle, and then the mice were wiped dry. Because the hair follicle cycle of mice was in the resting phase at this time, the mouse skin was pink. Mice were randomly divided into groups using Excel software, 10 mice in each group, and the modeling was established after 24 h and the drug was administered for 17 consecutive days. The AGA model was established by injecting dihydrotestosterone into the experimental mice. Dihydrotestosterone (DHT) solution was injected subcutaneously at multiple points every day, 100 μL/mouse (5 mg/kg body weight), and then the drug was administered after 3 h of absorption. CRT-2 and CRT-1 protein solutions were applied externally. 100 μL of protein solution was applied, and 100 μl of minoxidil MNX was applied. The CRT and MNX combination group was first applied with CRT-2 protein solution and then MNX 2 hours later. The solvent formula comprised 50% ethanol, 20% propylene glycol, and 30% pure water.
Scoring was based on the coverage of hair growth: • 0 points: no hair growth, pink in the hair removal area; • 1 point: gray in the hair removal area, hair coverage area E<20%; • 2 points: black in the hair removal area, hair coverage area 20%<E<40%; • 3 points: black in the hair removal area with a little hair growth, hair coverage area 40%<E<60%; • 4 points: black in the hair removal area with some hair growth, hair coverage area 60%<E<80%; • 5 points: black in the hair removal area, hair coverage area 80%<E<100%.
The skin color changes of mice were observed before administration every day. The hair removal time of mice was designated as Day 0, the first day of administration was designated as Day 1, and so on. The hair growth of each mouse was recorded and analyzed on Day 7, Day 9, Day 11, Day 13, Day 15, and Day 17.

[4] = external application group, compared with the model group

B1: CRT-2: fragment (1-349 aa) of recombinantly expressed CRT, amino acid sequence SEQ ID NO: 9 (protein)
chain: EPAVYFKEQFLDGDGWTSRWIESKHKSDFGKFVLSSGKFYGDEEKDKGLQTSQDARFYALSASFEPFSNKGQTLVVQFTVKHEQNIDCGGGYVKLFPNSLDQTDMHGDSEYNIMFGPDICGPGTKKVHVIFNYKGKNVLINKDIRCKDDEFTHLYTLIVRPDNTYEVKIDNSQVESGSLEDDWDFLPPKKIKDPDASKPEDWDERAKIDDPTDSKPEDWDKPEHIPDPDAKKPEDWDEEMDGEWEPPVIQNPEYKGEWKPRQIDNPDYKGTWIHPEIDNPEYSPDPSIYAYDNFGVLGLDLWQVKSGTIFDNFLITNDEAYAEEFGNETWGVTKAAEKQMKDKQDEEQR
[1]; external application group
  hair growth on the back skin: promoted hair growth the most
[1]; injection group
  hair growth on the back skin: promoted hair growth
  hair cuticles under scanning electron microscopy: dense
  hair shafts under scanning electron microscopy: thin
[1]; Day 14, external application group, compared with the model group, P<0.05
  blackness of the back skin (color tester): significantly increased
[1]; Day 17, external application group, compared with the model group, P<0.01
  blackness of the back skin (color tester): significantly increased
[1]; Day 17, injection group, compared with the model group, P<0.01
  blackness of the back skin (color tester): significantly increased
[1]; [4]
  growth stage and quantity of back hair under dermoscope: increased number and became thicker
  hair cuticles under scanning electron microscopy: dense
  hair shafts under scanning electron microscopy: became significantly thicker
[1]; injection group, compared with the model group
  growth stage and quantity of back hair under dermoscope: less and fine
[1]; external application group, compared with the model group, P<0.01
  number of hair follicles (pathological section): most significant effect
[1]; injection group, compared with the model group, P<0.01
  number of hair follicles (pathological section): significantly promoted
[2]; injection group, P<0.01
  serum dihydrotestosterone: decreased significantly
  skin tissue dihydrotestosterone: decreased significantly
[2]; injection group, P<0.05
  testosterone level in skin tissue: significantly decreased
  testosterone level in the serum: significantly decreased
[2]; topical (external application) group, P<0.05
  serum dihydrotestosterone: decreased significantly
[3]; external application 100 μL, CRT 0.35 mg/ml, MNX 5 mg/ml
  hair growth score compared with the Model group: significantly increased
[3]; external application
  hair growth score compared with the CRT-1 group: better than; also recorded: significantly increased
